The values below come from patent publication US8247376B2, “NGAL for reduction and amelioration of ischemic and nephrotoxic injuries” (The Trustees of Columbia University, priority 2004, dated 2012).

The test system of series [1] is ischemia-reperfusion injury in mice. Briefly: Histopathology scoring of tubule damage (dilatation, casts, necrosis) after ischemia-reperfusion. Conditions: NGAL before, during or after ischemia, 24 h reflow, vs saline controls. The class given is in vivo. The method, then:
Purified endotoxin-free NGAL was administered either intravenously into mice via tail vein injections, subcutaneously, or intraperitoneally. In preliminary studies, animals were treated with three different concentrations of NGAL (50, 100, or 250 μg of a 250 μg/100 solution), subjected to 30 minutes of bilateral renal artery clamping one hour later, and examined after 24 hours of reflow. […] All subsequent studies as reported here were carried out using the 250 μg dose of NGAL. […]
Kidney sections of 4 microns were stained with hematoxylin-eosin and scored for histopathologic damage to the tubules in a blinded fashion, as previously described by Yokota N. et al., Am J Physiol Renal Physiol 285: F319-F325, 2003 and Kjeldsen L. et al., Biochim Biophys Acta 1482: 272-283, 2000. Each parameter was assessed in five high power fields (40×) in the inner cortex and outer medullary regions (where the tubular damage was most evident), and an average determined for each section. […] Each parameter was scored on a scale of 0 to 4, ranging from none (O), mild (1), moderate (2), severe (3), to very severe/extensive (4).

In the next series the test system is tubule epithelial cells. The experiment in a line: PCNA proliferation assay on kidney sections. The class given is in vivo, mice. Conditions: 24 h reflow. The procedure:
Purified endotoxin-free NGAL was administered either intravenously into mice via tail vein injections, subcutaneously, or intraperitoneally. In preliminary studies, animals were treated with three different concentrations of NGAL (50, 100, or 250 μg of a 250 μg/100 solution), subjected to 30 minutes of bilateral renal artery clamping one hour later, and examined after 24 hours of reflow. […] All subsequent studies as reported here were carried out using the 250 μg dose of NGAL. Comparisons were made between five different animal groups: non-ischemic controls (n=8), ischemic controls pre-treated with saline alone (n=8), NGAL pre-treated one hour prior to renal artery clamping (n=6), NGAL treated during renal artery clamping (n=6), and NGAL treated one hour post renal artery clamping (n=6).
For detection of proliferating cells, sections were incubated with a monoclonal antibody to Proliferating Cell Nuclear Antigen (PCNA, 1:500 dilution, Upstate Biotechnology), and detection accomplished by immunoperoxidase staining as recommended by the manufacturer (ImmunoCruz Staining System, Santa Cruz Biotechnology). Slides were examined in a blinded fashion, and proliferation was quantified by counting the number of PCNA positive cells per 100 cells counted in an average of five high power (40×) fields in each section.

The subject of series [2] is mouse model of ATN or ischemia/reperfusion injury. Briefly: Mouse model of ATN (30 min clamp, contralateral nephrectomy): plasma creatinine. The class given is in vivo, mice. The procedure: (§1) Male C57BL/6 mice (20-25 gr; Charles River) were anesthetized with intraperitoneal pentobarbital (50 mg/kg) and placed on a heating pad under a warming light to maintain 37© core body temperature. Kidneys were exposed through an abdominal section and the right kidney was either removed or its vascular pedicle and ureter ligated. The vascular pedicle of the left kidney or both kidneys was clamped by a microaneurysm clip (Kent Scientific) for 30 minutes after right nephrectomy. This period of ischemia generated reproducible renal injury but minimized mortality. During the procedure, PBS (0.5 ml) was used to dampen the peritoneum. The animal was closed with 5-0 Nylon. Saline, NGAL, retinol-loaded retinol binding protein (RBP), enterochelin, or desferroxamine mesylate (DFO) were injected into the peritoneum or subcutaneously 15 min. prior to ischemia or 1-2 hr after reperfusion.
(§2) After 6 or 24 hr of reperfusion, heparinized plasma, urine and kidney samples were obtained to measure NGAL (polyclonal 1:500), Heme oxygenase-1 (Stressgen, 1:2000), E-cadherin (BD Transduction Labs, 1:2000), N-cadherin (BD Transduction Labs, 1:3000) and GAPDH (Chemicon International, 1:3000) using immunoblots. Plasma was also used for creatinine and blood urea nitrogen colorimetric assays. Sagittal sections of the kidney were fixed in 4% formalin, or were snap frozen for mRNA and protein analysis. Paraffin-embedded sections (5 μm) were stained with hematoxylin-eosin or by an in situ kit (Fluorescein-TUNEL, Roche) for apoptotic nuclei or for total nuclei (Toprol, Molecular Probes). For cell proliferation analysis, BrdU was injected into the peritoneum 1 hour before sacrifice, and cryostat sections were stained with anti-BrdU (Roche) according to the manufacturer.

Series [3] has the same test system. The experiment in a line: Kidney histology in mouse ATN model. The class given is in vivo, mice. Conditions: NGAL-treated ATN kidneys vs ATN. The method, then:
as §1
After 6 or 24 hr of reperfusion, heparinized plasma, urine and kidney samples were obtained to measure NGAL (polyclonal 1:500), Heme oxygenase-1 (Stressgen, 1:2000), E-cadherin (BD Transduction Labs, 1:2000), N-cadherin (BD Transduction Labs, 1:3000) and GAPDH (Chemicon International, 1:3000) using immunoblots. Plasma was also used for creatinine and blood urea nitrogen colorimetric assays. Sagittal sections of the kidney were fixed in 4% formalin, or were snap frozen for mRNA and protein analysis. […]

The test system of another series is N-cadherin. The experiment in a line: N-cadherin immunofluorescence and immunoblot in ischemic kidney. The format is in vivo, mice. Conditions: pre-treatment with NGAL, 6 or 24 hours of reperfusion.
Excerpt: as §2

Another series relates to cortical tubules. Briefly: Fluorescein-TUNEL: percentage of cortical tubules with TUNEL-positive cell. The class given is in vivo, mice. Conditions: 24 h after reperfusion, SEM; ischemic 11.5%, sham 0.5%.
Excerpt: as §2

Series [4] is described as follows: NGAL trafficking after intraperitoneal or subcutaneous injection. The class given is in vivo, mice. The text has this:
Recombinant human and mouse GST-NGAL were expressed in BL21 or XL1-Blue strains of E. coli (Stratagene) with additional ferric sulfate (50 Micro Molar, Sigma-Aldrich Co.). NGAL was isolated using Glutathione Sepharose 4B beads (Amersham Biosciences), eluted by thrombin cleavage (Sigma-Aldrich Co.; St. Louis, Mo.) and then further purified by gel filtration (Superdex75, SMART system, Amersham Biosciences) and examined by Coomassie gels (Biorad). BL-21 derived NGAL was loaded with iron free or iron saturated enterochelin, a siderophore (EMC Microcollections) using a 5 fold molar excess. Unbound siderophore (0.7 KD) was removed by washing (Microcon YM-10) with PBS. To produce ^55Fe or gallium (Ga) loaded NGAL we incubated the iron-free enterochelin NGAL complex with equimolar ^55Fe (18mCi) or Ga in NaCl (150 mM) Hepes (20 mM; pH 7.4) and the complex was washed 3 times (10K filter). Iodobeads (Pierce) were used to label NGAL with ^125I and unincorporated ^125I was removed by gel filtration (PD-10 column) followed by extensive dialysis (7 kDa cut off membrane, Pierce) against PBS. Alexa-568 and fluorescein isothiocyanate (Molecular Probes) was coupled to NGAL, according to the manufacturer, and then extensively dialyzed. Protein concentration was determined by Coomassie gels in comparison with bovine serum albumin standard.
To detect delivery of NGAL to the kidney rNGAL (10 or 100 μg), Alexa 568-NGAL (100 μg), ^125I-NGAL ([…], 2×10^6 cpm), or ^55Fe loaded enterochelin-NGAL (10 μg, 1×10^6 cpm) was injected into the peritoneum and blood, urine, kidney and liver samples were obtained. NGAL was detected by immunoblot. Alexa-568 NGAL was detected by confocal microscopy (LSM Meta Detector) and NGAL mediated iron trafficking was detected by scintillation counter and by light microscopic radioautography of Epon embedded kidneys. Slides were exposed to emulsion (Polyscience) for 1 week and then developed with Microdol and counterstained with Toluidine blue. To detect lysosomes in the proximal tubule, mice were injected with Fluorescein Dextran (46 kD; 0.5 mg; Sigma) 24 hours before Alexa 568 NGAL injections. LAMP1 (Santa Cruz) was detected in cryostat sections of 4% paraformaldehyde fixed kidneys.

“Also recorded” adds a separate entry of the source.

B1: NGAL: Purified endotoxin-free recombinant NGAL expressed as GST fusion protein in bacteria, thrombin cleaved (protein, UniProt P80188 21-198, looked up)
Neutrophil …: QDSTSDLIPAPPLSKVPLQQNFQDNQFQGKWYVVGLAGNAILREDKDPQKMYATIYELKEDKSYNVTSVLFRKKKCDYWIRTFVPGCQPGEFTLGNIKSYPGLTSYLVRVVSTNYNQHAMVFFKKVSQNREYFKITLYGRTKELTSELKENFIRFSKSLGLPENHIVFPVPIDQCIDG
Turning to B1, the “histopathologic score (dilatation, casts, cell necrosis; scale 0 to 4)” value in series [1] is reported as “significantly improved score”. For the same molecule, the “PCNA-positive tubule epithelial cells per hundred cells” value with tubule epithelial cells (NGAL during ischemia) was 14.9%±1.2; in the series with tubule epithelial cells (NGAL one hour after ischemia), 14.5%±1.2; in the series on tubule epithelial cells (NGAL one hour before ischemia, saline 4.4%±1.2), 19.1%±2.1. Also, the “plasma creatinine 24 hours after reperfusion” value turned out to be 3.09 ± 0.11 mg/dL in series [2] (1 μg NGAL (not protective)); 1.18 ± 0.18 mg/dL in series [2] (100 μg NGAL 15 minutes before clamping, untreated 3.16±0.17); 1.60 ± 0.28 mg/dL in series [2] (NGAL one hour after reperfusion). Besides, in series [2] (NGAL 2 hours after ischemia (no protective effect)), the plasma creatinine was 3.12 ± 0.35 mg/dL. Also, the “protection against ATN (creatinine, FIG. 17A)” value in series [2] (administered later than one hour after ischemia) is “ineffective”. Further, in series [3], the “kidney histology (tubule morphology)” value was “normal epithelial morphology was preserved in the S1 and S2 segments of the proximal tubule; also recorded: preservation of cortical tubules, but residual cortical-medullary casts”. The “N-cadherin expression in ischemic kidney” value with N-cadherin was “preserved N-cadherin immunofluorescence, enhanced the expression of full length N-cadherin and reduced the appearance of its fragment; also recorded: rescued”. The “percentage of cortical tubules with at least one TUNEL-positive tubular cell” value with cortical tubules is 2.9%±0.9. Further, the “time to appearance of NGAL in the urine” value in series [4] (injection of 100 μg exogenous NGAL) is listed as ≤ 10 min. The “injected NGAL recovered in the urine in the first hour” value in series [4] (mouse, in vivo) is 0.1-0.2%.
